Results from PMC7494997.

Experiments:
Human PSGL-1-Fc (human) = Human PSGL-1-Fc (human) (UniProt Q14242); assay: ELISA; binding curves of the VISTA-Fc mutants E125A and F62A (Supplementary Fig. S6D, S6E); conditions not given
hVSIG3-Fc (human) = hVSIG3-Fc (human) (UniProt Q5DX21); assay: as above
Sequence of hVSIG3-Fc (human) (Q5DX21 23-241): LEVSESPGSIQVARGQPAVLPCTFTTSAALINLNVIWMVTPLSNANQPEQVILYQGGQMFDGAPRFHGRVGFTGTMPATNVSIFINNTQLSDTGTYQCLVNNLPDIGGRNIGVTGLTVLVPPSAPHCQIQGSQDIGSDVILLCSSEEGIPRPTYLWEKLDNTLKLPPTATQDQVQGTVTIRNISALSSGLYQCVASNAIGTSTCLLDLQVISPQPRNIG

Sequence of Human PSGL-1-Fc (human) (Q14242 42-320): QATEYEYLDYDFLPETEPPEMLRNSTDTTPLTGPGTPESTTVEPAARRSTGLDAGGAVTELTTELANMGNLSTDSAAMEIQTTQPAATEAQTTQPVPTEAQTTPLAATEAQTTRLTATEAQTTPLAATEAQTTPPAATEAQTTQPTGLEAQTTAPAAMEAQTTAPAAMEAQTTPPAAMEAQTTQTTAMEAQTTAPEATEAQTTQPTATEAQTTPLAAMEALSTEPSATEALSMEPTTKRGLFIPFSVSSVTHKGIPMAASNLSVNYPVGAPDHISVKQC

fold affinity over the WT VISTA interaction (Human PSGL-1-Fc (human)) [fold]	fold affinity over the WT VISTA interaction (hVSIG3-Fc (human)) [fold]	Substance
> 2	–	soluble hVISTA-Fc E125A (Fc fusion)
–	> 2	soluble hVISTA-Fc F62A (Fc fusion)
